The source of these data is paper PMC5573408 (2017).

The target in test [1] is T1, Cannabinoid receptor 2 (Homo sapiens, UniProt P34972). As to the kind of experiment: radioligand binding [3H]WIN55,212-2, ternary complex allosteric model.
In test [2] the target is T1, Cannabinoid receptor 2. As to the kind of experiment: fluorescent pepcan-F4 displacement on CHO-K1-hCB2 cells.
Test [3] addresses T1, Cannabinoid receptor 2. As to the kind of experiment: fluorescence saturation binding on CHO-K1-hCB2 cells.
The target in test [4] is T1, Cannabinoid receptor 2. As to the kind of experiment: radioligand binding [3H]CP55,940, ternary complex allosteric model.

No end group written: not given here. fluorescein = fluorescein, fluorescent label at the C-terminus

T1 sequence (P34972 whole entry): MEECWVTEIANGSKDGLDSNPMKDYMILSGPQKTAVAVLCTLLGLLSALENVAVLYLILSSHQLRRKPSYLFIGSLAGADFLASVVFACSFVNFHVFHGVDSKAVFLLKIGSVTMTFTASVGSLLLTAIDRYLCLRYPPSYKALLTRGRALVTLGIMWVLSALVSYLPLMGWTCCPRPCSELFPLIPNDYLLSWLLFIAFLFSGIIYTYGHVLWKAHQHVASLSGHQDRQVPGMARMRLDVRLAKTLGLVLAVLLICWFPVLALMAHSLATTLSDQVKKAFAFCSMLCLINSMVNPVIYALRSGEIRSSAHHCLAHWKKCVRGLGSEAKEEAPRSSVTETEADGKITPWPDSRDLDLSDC

Take RVDPVNFKLLSH ([3H]WIN55,212-2 present): the Kd in test [1] was found to be 53 nM.
As to RVDPVNFKLLSH, in test [2], the Ki is 44 nM.
RVDPVNFKLLSH-fluorescein [Pepcan-F4] came in with a Kd in test [3] of 122 nM.
In turn, RVDPVNFKLLSH ([3H]CP55,940 present) registered a Kd in test [4] of 58 nM.
